{"source": "paper PMC11771145", "about": "(Nature, 2024)", "proteins": {"B1": {"name": "Vitiosangium bGSDM, engineered with a thrombin site and cleaved by thrombin (active N-terminal pore-forming domain) (domain or fragment, Vitiosangium sp. GDMCC 1.1324)", "chain": "SGLCSDPAITYLKRLGYNVVRLPREGIQPLHLLGQQRGTVEYLGSLEKLITQPPSEPPAITRDQAAAGINGQKTENLSFSIGINILKSVLAQFGAGAGIEAQYNQARKVRFEFSNVLADSVEPLAVGQFLKMAEVDADNPVLKQYVLGNGRLYVITQVIKSNEFTVAAEKSGGGSIQLDVPEIQKVVGGKLKVEASVSSQSTVTYKGEKQLVFGFKCFEIGVKNGEITLFASQLVPR"}}, "molecular_target": "the molecule itself", "experiment": "cryo-EM, 2D class averages"}
{"protein": "B1", "values": [{"measurement": "stoichiometry N", "result": "48 to 54", "unit": "protomers"}]}
